From publication PMC5603727

Tests used:
[1] = target: T1, Roquin-1 ROQ domain (SPR, EMSA wild type) (UniProt Q4VGL6 171-326); experiment: SPR; 2 mM Mg2+, 10 C; SPR: 10 mM HEPES pH 7.4, 150 mM NaCl, 2 mM MgCl2, 0.005% Tween 20, 10 C, ROQ immobilized; EMSA: 20 mM HEPES pH 7.4, 50 mM NaCl, 1 mM MgCl2, 1 mM DTT, 1 ug/ul BS
T1 sequence: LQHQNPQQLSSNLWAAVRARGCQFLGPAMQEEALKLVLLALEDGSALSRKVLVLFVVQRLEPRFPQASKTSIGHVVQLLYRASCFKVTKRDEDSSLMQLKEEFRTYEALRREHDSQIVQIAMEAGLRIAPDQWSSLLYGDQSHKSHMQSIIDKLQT

[2] = target: T2, Roquin-1 N-term (UniProt Q4VGL6 2-440); experiment: EMSA; SPR: 10 mM HEPES pH 7.4, 150 mM NaCl, 2 mM MgCl2, 0.005% Tween 20, 10 C, ROQ immobilized; EMSA: 20 mM HEPES pH 7.4, 50 mM NaCl, 1 mM MgCl2, 1 mM DTT, 1 ug/ul BS
T2 sequence: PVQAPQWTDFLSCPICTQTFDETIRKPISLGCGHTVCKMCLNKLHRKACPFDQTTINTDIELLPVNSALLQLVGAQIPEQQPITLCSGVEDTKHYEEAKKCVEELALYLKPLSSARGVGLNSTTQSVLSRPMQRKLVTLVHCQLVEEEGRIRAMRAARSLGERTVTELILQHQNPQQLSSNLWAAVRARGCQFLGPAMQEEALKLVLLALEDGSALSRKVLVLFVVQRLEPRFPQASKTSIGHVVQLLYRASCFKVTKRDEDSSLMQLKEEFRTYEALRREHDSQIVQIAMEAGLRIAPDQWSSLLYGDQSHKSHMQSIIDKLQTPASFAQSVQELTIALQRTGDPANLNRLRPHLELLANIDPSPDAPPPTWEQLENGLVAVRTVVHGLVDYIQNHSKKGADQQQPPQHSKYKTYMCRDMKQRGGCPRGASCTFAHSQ

[3] = target: T3, Roquin-1 ROQ (147-326) (UniProt Q4VGL6 147-326); experiment: as above
T3 sequence: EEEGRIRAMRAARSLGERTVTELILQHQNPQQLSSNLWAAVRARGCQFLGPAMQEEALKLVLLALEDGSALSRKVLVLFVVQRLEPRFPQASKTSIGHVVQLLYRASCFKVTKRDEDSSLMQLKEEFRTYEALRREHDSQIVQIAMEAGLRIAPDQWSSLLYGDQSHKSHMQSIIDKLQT

[4] = target: T4, Roquin-1 ROQ (171-326) (UniProt Q4VGL6 171-326); experiment: NMR; 298 K; SPR: 10 mM HEPES pH 7.4, 150 mM NaCl, 2 mM MgCl2, 0.005% Tween 20, 10 C, ROQ immobilized; EMSA: 20 mM HEPES pH 7.4, 50 mM NaCl, 1 mM MgCl2, 1 mM DTT, 1 ug/ul BS
T4 sequence: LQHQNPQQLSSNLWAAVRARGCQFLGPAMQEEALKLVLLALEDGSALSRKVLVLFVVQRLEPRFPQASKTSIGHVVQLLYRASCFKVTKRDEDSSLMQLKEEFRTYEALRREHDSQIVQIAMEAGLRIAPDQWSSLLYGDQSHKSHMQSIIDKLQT

B1: Tnf CDE SL (structured_RNA)
RNA: ACAUGUUUUCUGUGAAAACGGAG
Kd [1]: 42 ± 19 nM

B2: Ox40 ADE-like SL (structured_RNA)
RNA: UCCACACCGUUCUAGGUGCUGG
Kd [1]: 81 ± 22 nM

B3: Ox40 CDE-like SL (structured_RNA)
RNA: CUAUGUAUGCUAUGCAUACUACC
binding result [2]: binds | binding result [3]: binds

B4: SELEX-derived ADE SL (structured_RNA)
RNA: UGACUGCGUUUUAGGAGUUA
binding result [4]: binds

B5: Ox40 ADE-like Mut2 (G9C) (structured_RNA)
RNA: UCCACACCCUUCUAGGUGCUGG
binding result [1]: no binding

B6: Ox40 ADE-like Mut3 (U11A,U13G) (structured_RNA)
RNA: UCCACACCGUACGAGGUGCUGG
binding result [1]: no binding

B7: Ox40 ADE-like Mut4 (C8A,G15U) (structured_RNA)
RNA: UCCACACAGUUCUAUGUGCUGG
Kd [1]: 234 ± 63 nM
